Experiments:
[1] = target: T1, RNA helicase A (RHA, DHX9) (Homo sapiens, UniProt Q08211); assay: dsRNA strand-separation gel assay; assay type: biochemical; conditions: 2 mM nucleotide, 2 mM MgCl2, pH 7.5, dsRNA
T1 construct: full-length, N-terminal His-tag, baculovirus / Sf9 cells, nickel IMAC and heparin purified

[2] = target: RNA helicase A (human) (UniProt Q08211); assay: SPR; RHA amine-coupled to a CM5 chip (~1800 RU); EWS-FLI1 as analyte at 24 to 0.375 nM; HBS-P with 1-mM TCEP, 2-mM MgCl2, 0.1-M imidazole, pH 7.4; flow 100 ul/min, contact 60 s, dissociation 600 s; sample compartment at 10°C; 1:1 Langmuir model; Biacore T-200
[3] = target: RNA helicase A (human) (UniProt Q08211)
[4] = target: RNA helicase A (human) (UniProt Q08211); remark: listed apart in the source
[5] = target: T2, EWS-FLI1 (UniProt F1JVV7); assay: EMSA
T2 sequence: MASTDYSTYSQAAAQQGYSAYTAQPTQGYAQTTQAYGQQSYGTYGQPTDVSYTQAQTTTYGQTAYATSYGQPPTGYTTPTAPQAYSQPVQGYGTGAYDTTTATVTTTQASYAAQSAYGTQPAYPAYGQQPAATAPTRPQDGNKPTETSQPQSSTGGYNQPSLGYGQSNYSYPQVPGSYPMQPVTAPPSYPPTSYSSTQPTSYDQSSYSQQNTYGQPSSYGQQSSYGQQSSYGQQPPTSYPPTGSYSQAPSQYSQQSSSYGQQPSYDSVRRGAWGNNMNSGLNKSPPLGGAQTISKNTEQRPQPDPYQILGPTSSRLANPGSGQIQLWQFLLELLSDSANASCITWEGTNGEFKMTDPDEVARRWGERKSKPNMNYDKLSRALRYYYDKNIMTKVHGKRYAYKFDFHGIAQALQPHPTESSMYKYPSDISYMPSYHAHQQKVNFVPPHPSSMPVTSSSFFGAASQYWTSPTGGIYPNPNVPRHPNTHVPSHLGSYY

[6] = test system: RHA (RNA helicase A); assay: EMSA

RNA helicase A (human), sequence (Q08211 whole entry): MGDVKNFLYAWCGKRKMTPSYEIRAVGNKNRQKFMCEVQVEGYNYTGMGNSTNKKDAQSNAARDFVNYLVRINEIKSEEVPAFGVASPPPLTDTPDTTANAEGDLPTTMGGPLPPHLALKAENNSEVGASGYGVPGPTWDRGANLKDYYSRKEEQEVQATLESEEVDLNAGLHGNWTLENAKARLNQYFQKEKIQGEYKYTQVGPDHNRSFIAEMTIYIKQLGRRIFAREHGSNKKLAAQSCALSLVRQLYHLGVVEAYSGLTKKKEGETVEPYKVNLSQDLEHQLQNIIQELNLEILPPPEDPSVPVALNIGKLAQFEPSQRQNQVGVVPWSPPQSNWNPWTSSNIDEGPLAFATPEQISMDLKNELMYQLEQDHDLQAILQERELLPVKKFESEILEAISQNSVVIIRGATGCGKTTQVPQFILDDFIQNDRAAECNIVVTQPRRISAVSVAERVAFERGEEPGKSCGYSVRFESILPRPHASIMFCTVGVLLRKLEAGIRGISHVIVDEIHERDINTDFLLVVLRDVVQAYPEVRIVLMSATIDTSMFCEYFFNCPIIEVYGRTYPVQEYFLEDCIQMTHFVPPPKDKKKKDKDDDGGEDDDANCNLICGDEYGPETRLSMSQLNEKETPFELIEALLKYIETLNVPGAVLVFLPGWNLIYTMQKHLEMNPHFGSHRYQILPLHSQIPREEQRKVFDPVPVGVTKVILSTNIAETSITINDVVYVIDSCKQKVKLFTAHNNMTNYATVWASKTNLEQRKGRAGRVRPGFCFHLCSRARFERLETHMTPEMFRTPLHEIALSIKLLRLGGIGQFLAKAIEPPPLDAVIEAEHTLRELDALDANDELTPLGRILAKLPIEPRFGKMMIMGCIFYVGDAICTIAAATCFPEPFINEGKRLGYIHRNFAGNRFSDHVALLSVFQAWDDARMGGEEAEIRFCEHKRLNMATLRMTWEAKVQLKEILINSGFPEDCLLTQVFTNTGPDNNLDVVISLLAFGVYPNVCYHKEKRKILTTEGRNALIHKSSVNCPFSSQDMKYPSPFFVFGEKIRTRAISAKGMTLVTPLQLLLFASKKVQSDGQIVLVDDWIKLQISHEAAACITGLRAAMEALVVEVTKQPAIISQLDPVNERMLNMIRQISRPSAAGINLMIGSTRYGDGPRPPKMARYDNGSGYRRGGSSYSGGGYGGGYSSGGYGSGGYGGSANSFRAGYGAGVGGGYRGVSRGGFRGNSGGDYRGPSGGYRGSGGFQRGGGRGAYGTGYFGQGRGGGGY
T1 sequence (Q08211 whole entry): as above

## Nc1ccn([C@@H]2O[C@H](COP(=O)(O)OP(=O)(O)OP(=O)(O)O)[C@@H](O)[C@H]2O)c(=O)n1 [CTP]
[1]
  dsRNA strand-separation gel assay: Our purified RHA utilizes ATP, CTP, Uridine triphosphate (UTP) and Guanosine triphosphate (GTP)

## EWS-FLI1
[2]
  Kd: 14 nM
  koff: 0.03 s⁻¹
  kon: 3.5e+06 M⁻¹ s⁻¹
[3]
  helicase activity of 1-nM RHA in the presence of 1-nM EWS-FLI1 with racemic YK-4-279 or (S)-YK-4-279 (30 uM): 80%
[4]
  reduction of the initial velocity of RHA helicase activity (dsRNA strand separation), 1-nM RHA with 0.5 to 10 nM EWS-FLI1 (58% reduction at 1 nM): 78%

## Nc1ncnc2c1ncn2[C@@H]1O[C@H](COP(=O)(O)OP(=O)(O)OP(=O)(O)O)[C@@H](O)[C@H]1O [ATP]
[1]
  dsRNA strand-separation gel assay: Our purified RHA utilizes ATP, CTP, Uridine triphosphate (UTP) and Guanosine triphosphate (GTP)

## 350-nt partially double-stranded HDV RNA
[5]
  Kd: 30 nM
  binding signal (fold decrease in affinity): 3
[6]
  Kd: 4.7 nM

Reference: paper PMC4333382, “RNA helicase A activity is inhibited by oncogenic transcription factor EWS-FLI1” (Nucleic Acids Research, 2015)
